Laboratory results published in the supplement of paper PMC10126150.
± gives the standard deviation of the averaged measurements.

tested on: ATP; test: switch fluorescence ratio, 500 uM ATP over buffer (Cy3 cluster intensity, sum of 5 cycles each) (fold (ratio)); higher = stronger signal-on switching upon ATP binding; sequences stand for … in TCGTCGGCAGCGTCAGATGTGTATAAGAGACAGTTTTTTTTTTTTTTTTTTTTTTTTT…TC; details: aptamer strand: ATP DNA aptamer (quencher-CACCTGGGGGAGTATTGCGGAGGAAGG + anchor), 100 nM annealed; ATP concentration: 500 uM
Method in brief: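 Cy3-labelled switching-strand clusters on a modified Illumina MiSeq flow-cell were annealed to 100 nM quencher-labelled ATP aptamer and imaged first in selection buffer, then after 15 min with 500 uM ATP at 22 °C. NaOH stripping and re-annealing separated each of five buffer/ATP cycles, and clusters outside 100-1000 RFU were excluded. The fluorescence ratio sums target-cycle Cy3 intensity over buffer-cycle Cy3 intensity per cluster and averages it per switch-domain sequence.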
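Note: ATP exposure 15 min at 22 °C before imaging.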

| Sequence | switch fluorescence ratio |
| --- | --- |
| TAGCATGGGG | 0.991 ± 0.016 |
| TAGCATGGTA | 0.976 ± 0.049 |
| TAGCATTCAT | 0.994 ± 0.0072 |
| TAGCCGACGG | 1.03 ± 0.058 |
| TAGCCTAATG | 1.0049 ± 0.00065 |
| TAGCCTAGGT | 1.02 ± 0.017 |
| TAGCCTATTG | 0.979 ± 0.038 |
| TAGCCTGTTG | 0.9667 ± 0.002 |
| TAGCGCTGCC | 0.984 ± 0.012 |
| TAGCGGAAGT | 0.999 ± 0.017 |
| TAGCGGCGT | 0.9938 ± 0.0097 |
| TAGCGGGATT | 1.02 ± 0.033 |
| TAGCGTGAGC | 1.02 ± 0.04 |
| TAGCTAGATG | 1.02 ± 0.022 |
| TAGCTATTGT | 0.984 ± 0.012 |
| TAGCTCAGGG | 1.065 ± 0.0032 |
| TAGCTGACTG | 1.02 ± 0.04 |
| TAGCTGGATA | 0.9837 ± 0.005 |
| TAGCTTCAC | 1.142 ± 0.0084 |
| TAGCTTGGGA | 1.01 ± 0.026 |
| TAGCTTGGGG | 0.9985 ± 0.0046 |
| TAGCTTTAAC | 1.0888 ± 0.00092 |
| TAGGAAAGGC | 0.982 ± 0.027 |
| TAGGAAATCT | 1.03 ± 0.017 |
| TAGGAAATGT | 1.07 ± 0.087 |

| Sequence | switch fluorescence ratio |
| --- | --- |
| TAGGAAGAGG | 0.986 ± 0.0068 |
| TAGGAATTTG | 0.998 ± 0.037 |
| TAGGAGAGGG | 0.968 ± 0.034 |
| TAGGAGGAGG | 0.984 ± 0.011 |
| TAGGAGGCGC | 0.937 ± 0.064 |
| TAGGAGTGAG | 0.979 ± 0.026 |
| TAGGATAGTG | 0.978 ± 0.043 |
| TAGGATCCC | 0.981 ± 0.026 |
| TAGGATCGGA | 0.96 ± 0.032 |
| TAGGATGGCC | 0.9522 ± 0.0012 |
| TAGGATTGGG | 0.9894 ± 0.0053 |
| TAGGATTTAG | 0.994 ± 0.039 |
| TAGGATTTTT | 1.026 ± 0.0081 |
| TAGGCACCGA | 1.03 ± 0.053 |
| TAGGCACCTG | 1.0679 ± 0.00092 |
| TAGGCCATAG | 1.008 ± 0.0055 |
| TAGGCGTAGG | 0.9876 ± 0.0018 |
| TAGGCTAGGC | 0.971 ± 0.022 |
| TAGGCTCGG | 1.014 ± 0.0019 |
| TAGGCTCGGG | 0.99 ± 0.038 |
| TAGGCTCTTT | 0.9777 ± 0.008 |
| TAGGCTTTAA | 0.976 ± 0.011 |
| TAGGGAATGT | 1 ± 0.019 |
| TAGGGAATTG | 1.01 ± 0.011 |
| TAGGGACAGG | 0.99 ± 0.038 |

| Sequence | switch fluorescence ratio |
| --- | --- |
| TAGGGATCGT | 0.98 ± 0.051 |
| TAGGGATGAT | 0.9705 ± 0.0026 |
| TAGGGATTCT | 0.995 ± 0.026 |
| TAGGGGAAGA | 1.003 ± 0.0076 |
| TAGGGGATGC | 1 ± 0.015 |
| TAGGGGCGCG | 0.982 ± 0.078 |
| TAGGGGGAAA | 1.01 ± 0.024 |
| TAGGGGGAAC | 1.01 ± 0.022 |
| TAGGGGGAT | 1.01 ± 0.011 |
| TAGGGGGCAG | 1 ± 0.033 |
| TAGGGGGGCG | 1.01 ± 0.085 |
| TAGGGGGTTA | 0.992 ± 0.046 |
| TAGGGGTAGA | 1.017 ± 0.0054 |
| TAGGGGTCGG | 0.981 ± 0.048 |
| TAGGGGTGCA | 1.079 ± 0.009 |
| TAGGGGTGTT | 1.06 ± 0.12 |
| TAGGGGTTTT | 1.01 ± 0.024 |
| TAGGGTAAGG | 0.97 ± 0.035 |
| TAGGGTAATT | 0.9965 ± 0.0041 |
| TAGGGTAGCG | 0.99 ± 0.012 |
| TAGGGTATG | 0.983 ± 0.053 |
| TAGGGTCGGG | 0.9466 ± 0.0037 |
| TAGGGTCTGT | 0.999 ± 0.022 |
| TAGGGTGCGG | 1.03 ± 0.021 |
| TAGGGTGCGT | 1 ± 0.027 |

| Sequence | switch fluorescence ratio |
| --- | --- |
| TAGGGTGCTT | 1.04 ± 0.036 |
| TAGGGTTCTT | 1.03 ± 0.029 |
| TAGGTAAGGT | 1.03 ± 0.029 |
| TAGGTAGAGT | 0.9899 ± 0.006 |
| TAGGTAGCGG | 0.9996 ± 0.0076 |
| TAGGTATATC | 0.9843 ± 0.006 |
| TAGGTATTGT | 1.003 ± 0.0091 |
| TAGGTGACTG | 0.982 ± 0.037 |
| TAGGTGCATA | 1.03 ± 0.043 |
| TAGGTGGCGC | 1.08 ± 0.013 |
| TAGGTGTCAT | 1.15 ± 0.32 |
| TAGGTGTTTT | 1.05 ± 0.047 |
| TAGGTTGAGT | 0.996 ± 0.061 |
| TAGGTTGGTC | 1.02 ± 0.064 |
| TAGGTTTGCG | 0.994 ± 0.053 |
| TAGTAAATCG | 1.007 ± 0.0078 |
| TAGTAAATGG | 0.999 ± 0.017 |
| TAGTAATCTT | 1.003 ± 0.0092 |
| TAGTAATGTG | 0.993 ± 0.022 |
| TAGTAATTGG | 0.987 ± 0.029 |
| TAGTACTGTG | 0.998 ± 0.017 |
| TAGTAGATGT | 1.01 ± 0.036 |
| TAGTAGGGGA | 1.01 ± 0.039 |
| TAGTATGGTA | 1.01 ± 0.011 |
| TAGTATTAGA | 0.993 ± 0.031 |
